Measurements taken from the supplement of paper PMC10567573.

B1: ZNF649 (parent)
chain: EHERAHRGEKPHGCSLCGKAFYKR
B2: STX5 (parent)
chain: RSEFTLMAKRIGKDLSNTFAKLEK

Variants of: B1
Assay: protein stability index of a GFP-peptide fusion (GPS, HEK-293T) (PSI 1-6); higher = more stable
Conditions: c terminus: a fixed tail appended
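Further: lentivirally expressed fusions sorted by FACS into six bins by GFP to DsRed ratio, PSI derived from sequencing read proportions per bin multiplied by bin number.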

Protein stability index, by site and new letter:
H2: S 1.75 | D 2 | C 2.01 | W 1.03 | Q 3.21 | I 2 | T 3.15 | V 1.07 | F 2.8 | Y 1.65 | N 1.93 | G 1.02 | P 1.98 | M 2.06 | L 1.6
E1: K 3.37 | D 2.2 | W 1.85 | Q 2.07 | T 3.46 | H 1.86 | M 1.88 | R 1.7 | V 2.77 | I 1.49 | Y 2.38 | P 2.15 | N 1.69 | A 2.16
E3: H 2.72 | D 2.01 | Y 1.95 | R 1.96 | F 2.67 | G 1.81 | M 1.61 | T 1.89 | C 2.74 | I 1.78 | V 3.49 | N 2.47 | L 1.92 | A 1.5
A5: C 2.8
R4: M 2.08 | P 2.6 | Q 1.59 | I 1.91 | G 2.55 | N 2.23 | A 1.97 | T 1.95 | Y 1.5 | H 2.05 | E 2.14 | V 2.93 | W 1.88 | C 3.31

Variants of: B2
Assay: as above
Conditions: c terminus: a fixed tail appended

Protein stability index of substitutions, site by site:
D14: V 2.64 | M 2.59 | P 2.49 | G 3.97 | T 4.17 | I 4.05 | Y 2.65 | C 2.71 | L 2.61 | K 3.03 | Q 4.98
E23: P 2.32 | H 3.8 | K 5.04 | S 2.18 | L 3 | M 1.34 | A 1.98 | F 2.65 | I 2.84
I11: V 1.16 | P 3.52 | C 2.06 | H 3.46 | E 3.9 | G 3.41 | Q 3.33 | A 2.77 | N 4.29 | D 3.84 | M 1.65 | F 3.65
K9: Y 2.99 | I 1.82 | C 2.1 | R 2.04 | M 1.92 | G 2.01 | F 1.53 | S 2.87 | A 1.66 | Q 2.54 | V 2.17 | T 2.06 | P 2.94
T5: P 2.69 | K 1.54 | I 2.62 | W 2.76 | Q 1.02 | D 2.25 | L 2.46 | H 2.58 | E 1.35 | N 2.57
F4: P 3.58 | W 3.86 | V 1.8 | H 3.31 | Y 2.1 | L 2.33 | R 3.34 | Q 3.49 | S 3.69 | K 3.62 | M 2.35
G12: M 2.58 | R 2.16 | H 2.87 | E 2.42 | S 3.15 | Q 1.69 | N 1.81 | C 2.2
S2: T 1.9 | A 1.36 | Q 3.27 | N 1.03 | D 1.66 | C 3.2 | W 2.39 | G 1.51 | P 2.07
L15: N 3.79 | R 2.97 | S 2.81 | T 3.27 | K 3.24 | E 3.89 | W 2.05 | A 2.59 | C 1.53 | Y 2.4 | P 3.14 | Q 3.1 | F 2.92 | D 3.46 | G 3.75
S16: W 1.99 | P 2.46 | E 1.41 | R 3.34 | G 2.41 | V 3.75 | L 2.89 | Y 3.19 | D 2.45 | M 1.72 | Q 2.14 | F 4.43
T18: P 2.45 | F 4.45 | W 1.96 | H 2.41 | S 1 | C 2.41 | Y 3.54 | G 3.21 | E 2.94 | I 3.4 | N 1.27 | A 2.31 | V 2.21
K21: V 1.4 | E 2.04 | C 2.69 | I 2.12 | P 2.38 | H 2.51 | M 1.94 | Y 1.45 | R 2.53 | N 1.04 | D 1.91 | S 2.95 | L 2.47 | G 2.21 | A 1.96
R1: K 2.08 | D 1.92 | T 2.7 | Q 1.49 | S 2.54 | I 1.92 | N 1.82 | Y 4.8 | V 2.54 | E 1.45 | A 2.12 | L 3.25
K13: D 3.34 | E 2.34 | V 2.1 | T 1.46 | R 2.33 | Q 2.35 | L 2.83 | F 3.26 | C 2.46 | G 2.84 | M 1.07
R10: Q 1.05 | N 2.36 | S 2.11 | P 4.03 | D 3.12 | V 1.09 | C 2.66 | I 1.95 | E 2.94 | H 2.01 | G 2.35 | L 2.73 | M 1.99 | A 2.85 | Y 1.28
L6: C 2.21 | N 2.06 | P 2.85 | G 1.63 | Q 2.23 | H 1.86 | T 2.48 | F 2.36 | W 2.53 | D 1.4
L22: M 2.58 | H 2.7 | V 1.9 | P 3.06 | R 2.57 | Y 1.5 | Q 2.92 | C 1.79 | N 3.15 | S 3.17 | I 4.01 | A 2.29 | E 3.74
N17: D 2.63 | L 2.21 | G 3 | S 3.13 | P 2.5 | A 3.04 | Y 1.93 | Q 1.61 | F 2.34 | E 3.15 | I 3.01 | W 1.81
E3: Q 4.2 | M 2.25 | L 4.31 | P 4.75 | C 2.91 | R 3.64 | T 3.43 | K 2.75 | H 2.61
A20: N 1.84 | V 2.24 | P 3.3 | I 1.63 | D 2.15 | C 3.2 | E 1.58 | M 2.64
K24: L 2.38 | R 2.5 | V 2.42 | M 3.26 | E 1.76 | T 3.14 | S 1.63 | P 2.42 | H 2.46
F19: D 4.69 | G 3.57 | Q 3.44 | H 3.27 | K 2.71 | T 3.8 | C 2.69 | S 3.85 | M 1.62 | E 4.74 | V 1.96 | P 3.94 | N 3.42
A8: S 2.1 | W 2.44 | T 1.54 | G 2.49 | C 2.49 | H 3.46 | N 3.4 | K 2.99 | Q 2.96 | R 2.79 | P 3.46 | D 3.02
M7: T 2.54 | H 2.03 | S 3.12 | R 2.72 | Y 2.39 | F 3.38 | N 3.04 | G 2.73 | E 3.2 | W 3.31 | A 1.64 | Q 3.21 | D 4.15 | P 3.36
